Key:
Test in all cases: ITC; Affinity-ITC calorimeter, 25°C; 20 mM Tris-HCl pH 7.5, 150 mM NaCl, 1 mM DTT; independent binding model
[1] = target: Pub1 (287-767) (S. pombe) (UniProt Q92462)
pub1-F576A (S. pombe) = pub1-F576A (S. pombe) (UniProt Q92462)
[2] = target: Rsp5 WW1-HECT domain (224-809) (S. cerevisiae) (UniProt P39940)
[3] = target: Rsp5 HECT domain (444-809) (S. cerevisiae) (UniProt P39940)

## Any1 (17-361) (natural protein)
[1]
  Kd: 2.1 µM

## Any1 conjugated with K63 di-Ub (from UniProt P0CG63 1-76; P0CG63 1-76) (complex)
[1]
  fold enhancement of binding against non-conjugated Any1: 8 fold
pub1-F576A (S. pombe)
  Kd: 2.3 µM

## Art1 PY motifs containing region (661-710) (domain or fragment)
[2]
  Kd: 3.6 µM

## K63 di-Ub with a distal end ubiquitin mutant (I44A) (from UniProt P0CG63 1-76; P0CG63 1-76) (complex)
[3]
  Kd: 120 µM
